This note sets out measurements from publication PMC11868491.

For series [1], the target named is T1, His6-Crz1(N339-S678) (Saccharomyces cerevisiae BY4743, UniProt P53968 339-678). Put plainly: EMSA. (In general: A gel shift assay detects complexes by their altered migration in electrophoresis.)
The target of series [2] is T1, His6-Crz1(N339-S678). Nature of the series: competition.

T1 sequence (P53968 339-678): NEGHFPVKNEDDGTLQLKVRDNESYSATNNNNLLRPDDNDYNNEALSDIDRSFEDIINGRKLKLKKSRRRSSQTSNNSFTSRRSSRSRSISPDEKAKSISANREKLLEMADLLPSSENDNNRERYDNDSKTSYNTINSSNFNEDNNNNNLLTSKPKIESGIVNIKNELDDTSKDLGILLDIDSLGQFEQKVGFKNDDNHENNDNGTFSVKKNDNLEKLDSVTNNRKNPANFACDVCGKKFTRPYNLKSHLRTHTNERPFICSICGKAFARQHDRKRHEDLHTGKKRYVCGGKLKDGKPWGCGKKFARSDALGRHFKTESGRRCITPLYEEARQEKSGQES

B1: EMSA_probe-Crz1/CMK2-F/R (DIG-labeled) (dsDNA)
DNA 1: AACGCAGCGCGAAGAGAATAATTGAGGCTTATCTTAGAACCCTGCCCCC
DNA 2: GGGGGCAGGGTTCTAAGATAAGCCTCAATTATTCTCTTCGCGCTGCGTT
Consider B1, for which, in the series with His6-Crz1(N339-S678) [1], the binding result was “binds”.

B2: EMSA_probe-Crz1/CMK2-F/R (unlabeled competitor) (dsDNA)
DNA 1: AACGCAGCGCGAAGAGAATAATTGAGGCTTATCTTAGAACCCTGCCCCC
DNA 2: GGGGGCAGGGTTCTAAGATAAGCCTCAATTATTCTCTTCGCGCTGCGTT
For the molecule B2, in the series with His6-Crz1(N339-S678) [2], the binding result was “binds”.
